Measured values reported in patent publication US11406618B2, “Polymer-des-ethyl sunitinib conjugates” (Nektar Therapeutics, priority 2010, dated 2022).

Assay: Buffer hydrolysis in phosphate buffer to monitor the release of des-ethyl sunitinib
Format: physicochemical
Settings: 100 mM phosphate, 37° C.
Method: In a 10 mL round bottom flask was added (Z)—(N-(2-aminoethyl)-9-(hydroxymethyl)-9H-fluorene-2-carboxamide hydrochloride) ethyl(2-(5-((5-fluoro-2-oxoindolin-3-ylidene)methyl)-2,4-dimethyl-1H-pyrrole-3-carboxamido)ethyl)carbamate dihydrochloride (Compound 2a) (4.83 mg, 6.42 μmol). The solids were dissolved in anhydrous tetrahydrofuran (0.4 mL) and 1,4 dioxane (0.2 mL). mPEG-SPA 20K (100.4 mg, 5.02 μmol) was added. Anhydrous acetonitrile (0.2 mL) was added to dissolve the PEG. After the PEG dissolved, triethylamine (5.2 μL, 0.037 mmol) was added. At 1 hour, the reaction solvent was evaporated at reduced pressure to a dry solid. The product was redissolved in anhydrous acetonitrile (0.5 mL) and precipitated by slow addition of anhydrous IPA (8 mL total). The product was washed with anhydrous IPA (50 mL) and diethyl ether. Residual solvent was evaporated at reduced pressure. Yield was 75 mg yellow powder (75% yield). HPLC analysis was on C18 applying an acetonitrile gradient with 0.1% TFA; retention times were desethyl sunitinib (compound 1) 2.5 minutes and product at 10.7 minutes. Buffer hydrolysis was performed to monitor the release of des-ethyl sunitinib (100 mM phosphate, 37° C.): 36 days at pH 7.5, 3.6 days at pH 8.5.
In a 10 mL round bottom flask was added Compound 2b (9.6 mg, 0.013 mmol). The solids were suspended in anhydrous acetonitrile (0.37 mL) and 1,4 dioxane (0.37 mL). mPEG-SPA 20K (181.3 mg, 9.07 μmol) was added. After the PEG dissolved, triethylamine (9.24 μL, 0.066 mmol) was added. At one hour, the product was precipitated by slow addition of anhydrous IPA (10 mL). The solid was washed with anhydrous IPA (25-30 mL) and then washed with diethyl ether. Residual solvent was evaporated at reduced pressure. Yield was ˜120 mg yellow powder. The product was transferred to a 50 mL round bottom flask. More Compound 2b (6.9 mg, 9.18 μmol) was added. Anhydrous acetonitrile (0.25 mL) and anhydrous 1,4 dioxane (0.25 mL) and anhydrous pyridine (2.2 μL, 0.027 mmol) were added. The reagents never fully dissolved, therefore triethylamine (6 μL, 0.043 mmol) was added. The solution was a clear orange color. After 45 minutes, the product was precipitated by slow addition of anhydrous IPA (˜10 mL). The solid was washed with anhydrous IPA (˜25-30 mL) and then washed with diethyl ether. Residual solvent was evaporated at reduced pressure. Yield was ˜68 mg (57%) yellow powder. HPLC analysis was on C18 applying an acetonitrile gradient with 0.1% TFA; retention times were desethyl sunitinib (compound 1) 2.5 min and product at 10.7 min. Buffer hydrolysis was performed to monitor the release of des-ethyl sunitinib (100 mM phosphate, 37° C.): 22 days at pH 7.5, 1.4 days at pH 8.5.
Experiments were carried out to measure drug release from the polymer conjugates. A typical plot of the data showing the decay of the polymer conjugate (FIG. 1) and the build-up of drug with time (FIG. 2) are included.
In a 10 mL round bottom flask was Compound 2c (7.4 mg, 7.69 μmol) was suspended in anhydrous dioxane (0.5 mL) and anhydrous acetonitrile (0.5 mL). mPEG-SPA 20K (100.0 mg, 5.0 μmol) was added. After the PEG dissolved, triethylamine (7.2 μL, 0.052 mmol) was added. At thirty minutes, anhydrous acetonitrile (0.5 mL) and anhydrous methanol (0.3 mL) were added. At two hours total reaction time, the product was precipitated by slow addition of anhydrous IPA containing 0.25% phosphoric acid. The product was washed with anhydrous IPA and then washed with diethyl ether. Residual solvent was evaporated at reduced pressure. Yield: 58 mg (58%) yellow powder. HPLC analysis employed a C18 column using an acetonitrile gradient with 0.1% TFA; retention times were des-ethyl sunitinib 2.5 min and product 10.7 minutes with 41% purity at 320 nm. Buffer hydrolysis was done to monitor the release of desethyl sunitinib (100 mM phosphate, 37° C.): 11 d at pH 7.5, 1.7 d at pH 8.5.

Substance | Buffer hydrolysis, release of desethyl sunitinib at pH 7.5 (pH 7.5) [d] | Buffer hydrolysis, release of desethyl sunitinib at pH 8.5 (pH 8.5) [d] | Buffer hydrolysis, release of des-ethyl sunitinib at pH 7.5 (pH 7.5) [days] | Buffer hydrolysis, release of des-ethyl sunitinib at pH 8.5 (pH 8.5) [days]
(Z)-(9-(hydroxymethyl)-N2-(2-(2-(2-methoxyethoxy)ethoxy)ethyl)-N7-(2-β-(2-(mPEG 20,000))propanamido)ethyl)-9H-fluorene-2,7-dicarboxamide) ethyl(2-(5-((5-fluoro-2-oxoindolin-3-ylidene)methyl)-2,4-dimethyl-1H-pyrrole-3-carboxamido)ethyl)carbamate [Compound 3c] | 11 | 1.7 |  | 
(Z)-(9-(hydroxymethyl)-N-(2-β-(mPEG 20,000)propanamido)ethyl)-9H-fluorene-4-carboxamide) ethyl(2-(5-((5-fluoro-2-oxoindolin-3-ylidene)methyl)-2,4-dimethyl-1H-pyrrole-3-carboxamido)ethyl)carbamate [Compound 3b] |  |  | 22 | 1.4
(Z)-(9-(hydroxymethyl)-N-(2-β-(mPEG 20,000)propanamido)ethyl)-9H-fluorene-2-carboxamide) ethyl(2-(5-((5-fluoro-2-oxoindolin-3-ylidene)methyl)-2,4-dimethyl-1H-pyrrole-3-carboxamido)ethyl)carbamate [Compound 3a] |  |  | 36 | 3.6
